Consider three substances from patent US20040233833A1, “Methods for identifying compounds with thrapeutic potential for treatment of central Neurodegenerative diseases resulting from abnormal protein or peptide accumulation” (priority 2001, published 2004).

Data set [1] deals with T1, Human red blood cell proteasomes (Homo sapiens, UniProt P28072+P28074+Q99436).
T1 construct: Human red blood cell proteasomes; from tissue; host or cells: human red blood cells
Put plainly: Activation of fluorogenic peptide hydrolysis by the proteasome in the presence of REG variants. The format is biochemical. The settings on record: for Activation properties compared with REGα: small fluorogenic peptides, result in words; for Stimulation of cleavage (x-fold) LLE: substrate LLE-βNA (PGPH site); for Stimulation of cleavage (x-fold) LLVY: substrate LLVY-MCA (chymotrypsin-like site); for Stimulation of cleavage (x-fold) LRR: substrate LRR-MCA (trypsin-like site). Here is the method:
Human red blood cell proteasomes (170 ng) were mixed with increasing amounts of purified REG variants. The reactions were started by adding 50 μl of 200 μMscu-LLVY-MCA, Boc-LRR-MCA, or Boc-LLE-βNA in 10 mM Tris, pH 7.5. After a 10 min incubation, the reaction was quenched with 200μl of cold 100% ethanol, and the released MCA or βNA ws measured fluometrically. Each data point represents the mean of three measurements from a single experiment. […] REGα (▪), REGγ(□), REGγ(K188E) or REGγ(K188D) (●), REGγ(K188H) (∘), REGγ(K188Q) or REGγ(K188N) (Δ), REGγ(K188A) (♦). The data for REGγ(K188E) and REGγ(K188D) and for REGγ(K188Q) and REGγ(K188N) were combined since their activities were indistinguishable.
Because each positive variant identified in the previous example included a mutation at Lys188, site-directed mutagenesis was used to generate a series of amino acid substitutions at this residue. Twelve mutants were constructed in which Lys188 of REGγ was changed to Ala, Arg, Asn, Asp, Cys, Gln, Glu, His, Ile, Phe, Pro, or Ser. Wild-type REGγ and the Lys 188 variants were expressed in E. coli, purified, and the activation specificity of each protein was measured using the diagnostic peptides LLVY (SEQ ID NO:1)-MCA, LRR-MCA, and LLE-βNA. Except for the K188R variant, all Lys 188 mutants stimulated the hydrolysis of LRR-MCA by the proteasome to the same extent or slightly better than wild-type REGγ. Substitution of negatively-charged Glu or Asp for the positively-charged Lys188 produced mutants with activation properties almost identical to REGα.
To determine the degree to which the activation specificity of REGγ(K188E/D) variants matches that of REGα, proteasomal cleavage of a series of fluorogenic peptides was measured in the presence of each activator.

Data set [2] is described as follows: Heptamer stability on rechromatography (Superdex 200 size exclusion column). The settings on record: for Heptamers dissociated during the second gel filtration: Superdex 200; for Percent heptamer: after second gel filtration. The class given is physicochemical. An excerpt: To examine the effect of Lys188 substitution on REGγ heptamer stability, the wildtype and Lys 188 variant heptamers were rechromatographed on the Superdex 200 (26/60) size exclusion column used for purification. […] Replacement of Lys 188 by Pro or Phe severely affected the stability of REGγ heptamer.

Data set [3] has as its target T2, proteasome (Homo sapiens, UniProt P28072+P28074+Q99436). Put plainly: REGα(N146Y)/REGβ(N135Y) competition assay for relative proteasome affinity. The settings on record: in terms of REGα(N146Y)/REGβ(N135Y) competition; wild-type REGγ 100. The format is binding. An excerpt: As a measure of the relative affinities of REGγ and the REGγLys188 mutants for the proteasome, a competition assay was used. See Li et al. (2000), The Proteasome Activator 11S REG or PA28: Chimeras Implicate Carboxyl-Terminal Sequences in Oligomerization and Proteasome Binding But Not in the Activation of Specific Proteasome Catalytic Subunits. J. Mol. Biol. 299:641-54. All REGγLys188 mutants were relatively resistant to REGα(N146Y)/REGβ(N135Y) competition with apparent proteasome affinities varying from 40% to 90% that of wild-type REGγ.

In data set [4] the target is T2, proteasome. Put plainly: Proteasomal hydrolysis of natural peptides P21 and BBC1 (HPLC). The format is biochemical. The conditions noted are these: 21-residue peptide P21; result in words. The method, then:
Proteasomal hydrolysis of a 21 -residue peptide (P21) and a 49-residue peptide (BBC1) were prepared as described by Zhang et al. (1998), Proteasome Activation by REG Molecules Lacking Homolog-specific Inserts, J. Biol. Chem. 273:9501-09. Digestion products were applied to a C18 HPLC column and separated with a gradient of 0-45% acetonitrile containing 0.1% trifluoroacetic acid. To identify the products derived from P21, fractions were collected manually, concentrated, and subjected to mass spectrometry.

In data set [5] the target is T1, Human red blood cell proteasomes. Put plainly: Activation of fluorogenic peptide hydrolysis by the proteasome in the presence of REG variants. The format is biochemical. The settings on record: for Stimulation of cleavage (x-fold) AAF-MCA: substrate AAF-MCA; for Stimulation of cleavage (x-fold) DEVD-MCA: substrate DEVD(SEQ ID NO: 8)-MCA; for Stimulation of cleavage (x-fold) FSR-MCA: substrate FSR-MCA; for Stimulation of cleavage (x-fold) IEGR-MCA: substrate IEGR(SEQ ID NO: 5)-MCA; for Stimulation of cleavage (x-fold) IETD-MCA: substrate IETD(SEQ ID NO: 6)-MCA; for Stimulation of cleavage (x-fold) LGHD-MCA: substrate LGHD(SEQ ID NO: 7)-MCA; for Stimulation of cleavage (x-fold) LY-MCA: substrate LY-MCA; for Stimulation of cleavage (x-fold) VLK-MCA: substrate VLK-MCA; for Stimulation of cleavage (x-fold) YVAD-MCA: substrate YVAD(SEQ ID NO: 9)-MCA.

Data set [6] addresses proteasome β subunits (T, CT/PGPH) (Homo sapiens, UniProt P28072+P28074+Q99436). Put plainly: Affinity labeling of proteasome β subunits with 125I-YL3-VS in the presence of REGs. The conditions noted are these: mean±S.D. The class given is biochemical. An excerpt: To obtain estimates of substrate access to the proteasome's central chamber in the presence of REGγ and REGγ(K188E), the active site-directed probe, ^125I-YL3-VS, which covalently modifies all three active β-subunits in an activity dependent manner, was used. […] The phosphoimages show increased labeling of CT/PGPH and T subunits in the presence of REGγ and REGγ(K188E). The data further reveal that REGγ increased the rate of T-subunit labeling 4.7±2.6 (mean±S.D.) fold and the rate of CT/PGPH labeling 4.4±1.7 (mean±S.D.) fold over that seen with proteasome alone. Stimulation by the mutant REGγ(K188E) was greater, being 10.8±4.9 (mean±S.D.) fold for the T-subunit and 11.9±4.8 (mean±S.D.) fold for the CT/PGPH subunit. […] The finding that REGγ increased labeling of the CT and PGPH subunits was unexpected as the wild type activator suppresses hydrolysis of the CT substrate sLLVY (SEQ ID NO:1)-MCA.

The target of data set [7] is T3, proteasomes (Homo sapiens, UniProt P28072+P28074+Q99436). Briefly: Proteasomal degradation of fluorescein-labeled polyQ peptides (molecular exclusion chromatography). The conditions noted are these: proteasome + activator, 5 hr incubation. The format is biochemical. Here is the method: The following peptides were synthesized using routine peptide synthesis:
Each peptide was incubated for 5 hr with proteasomes alone, proteasomes+REGγ, proteasome+REGγ(K188E) or proteasomes+REGα/β. Degradation was assayed by molecular exclusion chromatography using fluorescein as a signal (see FIG. 2). The degradation products were identified by HPLC-MS (FIG. 3). […] By contrast, in the presence of REGγ(K188E) the various polyQ peptides were degraded 5 to 10-fold faster.

Data set [8] has as its target T3, proteasomes. Briefly: Proteasomal degradation of the fluorescein-tagged C31 peptide of APP. The format is biochemical. The settings on record: result in words. Here is the method:
A 31-residue C-terminal peptide (C31) of APP, the transmembrane protein that gives rise to amyloid plaque forming Aβ peptides characteristic of Alzheimer's disease, was synthesized using routine peptide synthesis. A fluorescein tag was added to the peptide. C31 peptide is cytotoxic. See Lu et al. (2000), a Second Cytotoxic Proteolytic Peptide Derived from Amyloid Beta-Protein Precursor, Nat. Med. 6:397-404.
The C31 was incubated with proteasomes alone, proteasomes+REGγ, proteasome+REGγ(K188E) or proteasomes+REGα/β, and degradation was assayed as described in Example 8.

Bounds are passed on as bounds.

Take “γK188D: mutant REGγ in which Lys188 was changed to Asp”: in data set [1], the “Activation properties compared with REGα” value is listed as “virtually identical to REGα”, the “Stimulation of cleavage (x-fold) LLE” value came out at 9 x-fold, the “Stimulation of cleavage (x-fold) LLVY” value was 14 x-fold and the “Stimulation of cleavage (x-fold) LRR” value came out at 15 x-fold. Further, in data set [2], the “Heptamers dissociated during the second gel filtration” value is listed as “More than half” and the Percent heptamer was found to be 50%. In addition, the “Relative affinity for proteasome” value in data set [3] was determined as 90. The “Hydrolysis of P21 by the proteasome” value in data set [4] is given as “markedly increased”. In data set [5], the “Stimulation of cleavage (x-fold) AAF-MCA” value was found to be 4 x-fold, the “Stimulation of cleavage (x-fold) DEVD-MCA” value is on record as 9 x-fold, the “Stimulation of cleavage (x-fold) FSR-MCA” value amounted to 7 x-fold and the “Stimulation of cleavage (x-fold) IEGR-MCA” value was determined as 2 x-fold. Further, in data set [5], the “Stimulation of cleavage (x-fold) IETD-MCA” value was 26 x-fold, the “Stimulation of cleavage (x-fold) LGHD-MCA” value is on record as 11 x-fold, the “Stimulation of cleavage (x-fold) LY-MCA” value came out at 3 x-fold and the “Stimulation of cleavage (x-fold) VLK-MCA” value turned out to be 6 x-fold. Besides, the “Stimulation of cleavage (x-fold) YVAD-MCA” value in data set [5] worked out at 8 x-fold.
Turning to “REGα: 11S REG proteasome activator subunit closely related to REGβ and REGγ”, in data set [1], the “Stimulation of cleavage (x-fold) LLE” value is recorded as 9 x-fold, the “Stimulation of cleavage (x-fold) LLVY” value is 16 x-fold and the “Stimulation of cleavage (x-fold) LRR” value was 16 x-fold. Besides, the Percent heptamer entry in data set [2] is given as “˜95%”. In addition, the “Relative affinity for proteasome” value in data set [3] worked out at 0. For the same substance, the “Hydrolysis of P21 by the proteasome” value in data set [4] is “markedly increased”. Further, in data set [5], the “Stimulation of cleavage (x-fold) AAF-MCA” value worked out at 6 x-fold, the “Stimulation of cleavage (x-fold) DEVD-MCA” value was determined as 10 x-fold, the “Stimulation of cleavage (x-fold) FSR-MCA” value was 10 x-fold and the “Stimulation of cleavage (x-fold) IEGR-MCA” value turned out to be 3 x-fold. In data set [5], the “Stimulation of cleavage (x-fold) IETD-MCA” value is on record as 30 x-fold, the “Stimulation of cleavage (x-fold) LGHD-MCA” value is on record as 11 x-fold, the “Stimulation of cleavage (x-fold) LY-MCA” value is given as 5 x-fold and the “Stimulation of cleavage (x-fold) VLK-MCA” value was 7 x-fold. For the same substance, in data set [5], the “Stimulation of cleavage (x-fold) YVAD-MCA” value amounted to 9 x-fold.
Turning to “γK188E: mutant REGγ in which Lys188 was changed to Glu”, in data set [1], the “Activation properties compared with REGα” value was “virtually identical to REGα”, the “Stimulation of cleavage (x-fold) LLE” value is given as 9 x-fold, the “Stimulation of cleavage (x-fold) LLVY” value is recorded as 14 x-fold and the “Stimulation of cleavage (x-fold) LRR” value turned out to be 15 x-fold. Moreover, in data set [2], the “Heptamers dissociated during the second gel filtration” value is listed as “More than half” and the Percent heptamer turned out to be 50%. Moreover, the “Relative affinity for proteasome” value in data set [3] was determined as 90. In data set [6], the “Increase in rate of CT/PGPH labeling over proteasome alone” value worked out at 11.9±4.8 fold and the “Increase in rate of T-subunit labeling over proteasome alone” value was found to be 10.8±4.9 fold. In addition, in data set [7], the “% Degraded, substrate F1-EPQPQ” value is listed as 80%; the “% Degraded, substrate F1-KSQPQ” value is given as 80%; the “% Degraded, substrate F1-QHQ” value is 50%; the “% Degraded, substrate F1-QPQ” value stood at 50%. Further, in data set [7], the “% Degraded, substrate F1-QQQ” value is more than 95%. Besides, in data set [4], the “Hydrolysis of P21 by the proteasome” value is given as “markedly increased”. For the same substance, the “Degradation of C31 peptide by proteasomes” value in data set [8] is “extensively degraded”. For the same substance, in data set [5] (result in words), the “Cleavage of peptides diagnostic for the CT-like or PGPH active sites” value is given as “substantially more than REGγ”. Also, in data set [5], the “Stimulation of cleavage (x-fold) AAF-MCA” value is 4 x-fold, the “Stimulation of cleavage (x-fold) DEVD-MCA” value is on record as 8 x-fold, the “Stimulation of cleavage (x-fold) FSR-MCA” value is 7 x-fold and the “Stimulation of cleavage (x-fold) IEGR-MCA” value was determined as 2 x-fold. Also, in data set [5], the “Stimulation of cleavage (x-fold) IETD-MCA” value is listed as 21 x-fold, the “Stimulation of cleavage (x-fold) LGHD-MCA” value is reported as 10 x-fold, the “Stimulation of cleavage (x-fold) LY-MCA” value is on record as 3 x-fold and the “Stimulation of cleavage (x-fold) VLK-MCA” value came to 6 x-fold. Moreover, the “Stimulation of cleavage (x-fold) YVAD-MCA” value in data set [5] came out at 7 x-fold.
